The numbers were not newly measured in article PMC12362618, “Development of the First Small-Molecule Inhibitor Targeting Oncostatin M for Treatment of Breast Cancer” (Journal of Medicinal Chemistry, 2025), which cites them from elsewhere.

The target of this series is gp130 (Homo sapiens) (UniProt P40189).
gp130 (Homo sapiens), sequence (P40189 23-619): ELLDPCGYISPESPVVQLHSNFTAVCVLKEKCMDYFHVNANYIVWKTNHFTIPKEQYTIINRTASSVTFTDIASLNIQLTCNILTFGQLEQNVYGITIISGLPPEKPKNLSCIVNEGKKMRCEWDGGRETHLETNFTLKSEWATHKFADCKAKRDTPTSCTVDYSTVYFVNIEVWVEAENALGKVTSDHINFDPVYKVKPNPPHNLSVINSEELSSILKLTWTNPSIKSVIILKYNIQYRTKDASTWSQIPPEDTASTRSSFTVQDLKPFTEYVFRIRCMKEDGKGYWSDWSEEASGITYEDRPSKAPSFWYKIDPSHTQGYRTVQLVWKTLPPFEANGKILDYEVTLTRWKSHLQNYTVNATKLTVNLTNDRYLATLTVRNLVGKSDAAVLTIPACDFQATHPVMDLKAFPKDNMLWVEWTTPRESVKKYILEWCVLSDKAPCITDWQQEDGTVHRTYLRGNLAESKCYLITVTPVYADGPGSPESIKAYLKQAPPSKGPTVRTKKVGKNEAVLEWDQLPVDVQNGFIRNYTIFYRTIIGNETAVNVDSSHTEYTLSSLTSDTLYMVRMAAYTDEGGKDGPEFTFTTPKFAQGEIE

OSM, sequence (P13725 26-221): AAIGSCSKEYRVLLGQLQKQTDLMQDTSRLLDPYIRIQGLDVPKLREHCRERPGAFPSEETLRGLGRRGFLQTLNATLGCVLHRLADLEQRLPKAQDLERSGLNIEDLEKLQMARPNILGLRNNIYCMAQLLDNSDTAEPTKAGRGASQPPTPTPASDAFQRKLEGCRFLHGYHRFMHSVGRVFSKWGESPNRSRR

OSM (from UniProt P13725): the Kd (usually the free concentration of one partner at which half of the binding sites on the other are occupied at equilibrium, for simple one-to-one binding) was 22.7 nM.
